Legend:
[1] = tested on: GAL4 responsive reporter plasmid; assay: Cotransfection of GAL4-HIF-1α fusion proteins with GAL4 responsive luciferase reporter; assay type: cell-based, simian; settings: for GAL4 reporter transcriptional activity (in words): with or without CBP / SRC-1; for stimulation of GAL4 reporter activity by coexpressed CBP / stimulation of GAL4 reporter activity by coexpressed SRC-1: hypoxic conditions, vs hypoxia without exogenous coactivator
Text: To analyze functional activities of HIF-1α independently of the endogenous DNA binding and dimerization domains and the Arnt partner, we next fused HIF-1α to the heterologous DNA binding domain of GAL4. Functional activity of the fusion protein was monitored in COS7 cells by a cotransfection assay using a reporter gene construct carrying five GAL4 DNA binding elements in front of thymidine kinase promoter and the luciferase gene. Six hours after transfection media was changed, and cells were either left uninduced or exposed to 1% oxygen for 30 h prior to harvest. In the presence of either empty expression vector or a vector expressing the minimal GAL4 DNA binding domain, reporter gene activity was unaltered by reduced oxygen levels. […] The GAL4 DNA binding domain is known to harbor an NLS motif capable of taking fusion proteins to the nucleus (Ma and Ptashne (1987) Cell 51, 113-119). We therefore used antibodies directed against the DNA binding domain of GAL4 to examine in both normoxic and hypoxic cells the intracellular localization of the GAL4-HIF-1α fusion protein by immunofluorescence.
Transcriptional activity of GFP and GAL4 fusion constructs was analyzed in a cotransfection assay where effector plasmids (0.2 μg/30-mm dish) together with a reporter gene (1.5 μg/30-mm dish) were introduced into COS7 or HeLa cells. The reporter plasmid encoded firefly luciferase gene under the control of thymidine kinase minimal promoter and either five or three copies of GAL4 or HIF-responsive elements, respectively.

[2] = target: GST/Ref-1 (Homo sapiens, UniProt P27695); assay: Pull-down of [35S]methionine-labeled GAL4/HIF proteins with GST/Ref-1; assay type: binding; settings: presence or absence of diamide
Chain of GST/Ref-1 (P27695 whole entry, species assumed, the tested form may be a part): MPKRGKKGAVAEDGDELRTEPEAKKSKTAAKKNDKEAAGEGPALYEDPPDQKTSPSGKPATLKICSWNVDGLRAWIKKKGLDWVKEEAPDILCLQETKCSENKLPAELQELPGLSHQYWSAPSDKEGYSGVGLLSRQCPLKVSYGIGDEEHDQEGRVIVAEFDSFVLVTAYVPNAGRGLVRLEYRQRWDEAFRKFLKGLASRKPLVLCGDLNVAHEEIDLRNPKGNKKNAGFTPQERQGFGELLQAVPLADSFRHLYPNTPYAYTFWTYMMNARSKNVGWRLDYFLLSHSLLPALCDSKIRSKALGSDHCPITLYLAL
Protocol: The precise mechanism by which Ref-1 activates HIF-1α is not known. […] To further investigate whether Ref-1 could interact with HIF-1α, we tried to trap the interaction by using a crosslinking reagent such as diamide, which oxidizes cysteine sulfhydryls to disulfides. A series of experiments was performed with GST-tagged purified Ref-1. [^35S]methionine-labeled in vitro translated GAL4/HIF 1-826 was incubated with GST/Ref-1 in the presence or absence of diamide.
Next, we tried a series of pull-down experiments with [^35S]methionine-labeled in vitro translated GAL4/HIF […] and GAL4/HIF 531-584. […] An interaction between GAL4/HIF […] and GST/Ref-1 was also detected, and this interaction was enhanced in the presence of diamide. In excellent agreement with this observation the C-TAD contains two cysteine residues. […] Immunoblot analysis verified that the input concentrations of GST/Ref-1 or GST alone were similar.

| binding to GST/Ref-1 (in words) [2] | hypoxia-dependent activation of GAL4 reporter gene activity ([1]; 1% O2 vs normoxia, no exogenous coactivator) | stimulation of GAL4 reporter activity by coexpressed CBP [1] | stimulation of GAL4 reporter activity by coexpressed SRC-1 [1] | stimulation of hypoxia-dependent activation response by p300ΔHAT ([1]; absence of SRC-1, hypoxia) | Molecule | GAL4 reporter transcriptional activity (in words) [1] | regulation by Ref-1 and the coactivators (in words) ([1]; Ref-1, CBP and SRC-1) |
| --- | --- | --- | --- | --- | --- | --- | --- |
| detected | about 2 fold | 29 fold | 17 fold | – | GAL4/HIF 776-826: GAL4 fusion containing the carboxy-terminal transactivation domain of HIF-1α (SEQ ID NO: 14) (protein) MKLLSSIEQACDICRLKKLKCSKEKPKCAKCLKNNWECRYSPKTKRSPLTRAHLTEVESRLERLEQLFLLIFPREDLDMILKMDSLQDIKALLTGLFVQDNVNKDAVTDRLASVETDMPLTLRQHRISATSSSEESSNKGQRQLTVSSDLACRLLGQSMDESGLPQLTSYDCEVNAPIQGSRNLLQGEELLRALDQVN | – | – |
| bound GST/Ref-1 | – | 11 fold | 1.5 fold | 2 fold | GAL4/HIF 531-584: GAL4 chimeric protein spanning the N-terminal transactivation domain of HIF-1α (SEQ ID NO: 13) (protein) MKLLSSIEQACDICRLKKLKCSKEKPKCAKCLKNNWECRYSPKTKRSPLTRAHLTEVESRLERLEQLFLLIFPREDLDMILKMDSLQDIKALLTGLFVQDNVNKDAVTDRLASVETDMPLTLRQHRISATSSSEESSNKGQRQLTVSFKLELVEKLFAEDTEAKNPFSTQDTDLDLEMLAPYIPMDDDFQLRSFDQLSPLE | – | – |

Continued, molecule first:

| Molecule | binding to GST/Ref-1 (in words) [2] | hypoxia-dependent activation of GAL4 reporter gene activity ([1]; 1% O2 vs normoxia, no exogenous coactivator) | stimulation of GAL4 reporter activity by coexpressed CBP [1] | stimulation of GAL4 reporter activity by coexpressed SRC-1 [1] | stimulation of hypoxia-dependent activation response by p300ΔHAT ([1]; absence of SRC-1, hypoxia) | GAL4 reporter transcriptional activity (in words) [1] | regulation by Ref-1 and the coactivators (in words) ([1]; Ref-1, CBP and SRC-1) |
| --- | --- | --- | --- | --- | --- | --- | --- |
| GAL4/HIF 526-641: GAL4 fusion with N-terminal transactivation domain and proposed inhibitory sequence (protein) MKLLSSIEQACDICRLKKLKCSKEKPKCAKCLKNNWECRYSPKTKRSPLTRAHLTEVESRLERLEQLFLLIFPREDLDMILKMDSLQDIKALLTGLFVQDNVNKDAVTDRLASVETDMPLTLRQHRISATSSSEESSNKGQRQLTVSDMVNEFKLELVEKLFAEDTEAKNPFSTQDTDLDLEMLAPYIPMDDDFQLRSFDQLSPLESSSASPESASPQSTVTVFQQTQIQEPTANATTTTATTDELKTVTKDRMEDIKILIAS | – | – | – | – | – | complete abrogation of the effect of CBP and SRC-1 | – |
| GAL4/HIF 776-813: GAL4 fusion of C-terminal transactivation domain lacking 13 most carboxy-terminal amino acids (SEQ ID NO: 15) (protein) MKLLSSIEQACDICRLKKLKCSKEKPKCAKCLKNNWECRYSPKTKRSPLTRAHLTEVESRLERLEQLFLLIFPREDLDMILKMDSLQDIKALLTGLFVQDNVNKDAVTDRLASVETDMPLTLRQHRISATSSSEESSNKGQRQLTVSSDLACRLLGQSMDESGLPQLTSYDCEVNAPIQGSRNLL | – | – | – | – | – | completely abrogated | showed no regulation by Ref-1 and the coactivators |

— US6436654B1, “Methods for identifying compounds that modulate HIF-1α” (Pharmacia & Upjohn AB, priority 1998, dated 2002)
